Experimental data reported in the supplement of paper PMC10567573.

B1: WDR41 (parent)
chain: HVGELIIWDALDWTMQAYERNFWD
B2: NR2F2 (parent)
chain: NIPFFPDLQITDQVALLRLTWSEL

Variants of: B1
Assay: protein stability index of a GFP-peptide fusion (GPS, HEK-293T) (PSI 1-6); higher = more stable
Details: c terminus: a fixed tail appended
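Note: lentivirally expressed fusions sorted by FACS into six bins by GFP to DsRed ratio, PSI derived from sequencing read proportions per bin multiplied by bin number.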

Protein stability index, by site and new letter:
W13: Q 2.21; S 3.29; T 1.97; Y 2.84
T14: D 1.68; G 2.08; K 2.31; N 1.42; P 2.28; Q 1.38; S 1.24; V 2.54; Y 4.99
M15: D 1.76; G 1.06; K 3.06; Q 2.44; S 1.88; T 1.05
Q16: C 2.77; G 1.78; I 2.45; M 2.63
A17: C 2.5; E 2.26; F 3.37; G 1.81; H 1.63; I 1.15; K 2.09; N 4.42; P 1.76; T 1.74; W 3.37
Y18: A 3.71; C 3.15; E 1.12; H 1.6; K 2.17; N 2.18; R 2.81; S 1.07
E19: A 1.64; C 2.17; D 1.67; H 2.77; I 2.09; N 1.91; P 1.72; Q 3.24; T 1.44; V 1.87
R20: A 1.32; C 1.24; E 1.46; G 1.75; K 1.5; L 3.16; N 2.98; P 2.05; S 1.56; T 3.97
N21: D 1.87; E 2.14; G 2.56; I 2.9; L 3; M 3.52; Q 2.87; S 2.11; T 2.15
F22: E 3.79; G 2.8; K 1.41; L 2.35; M 2.71; P 1.75; S 1.57; T 3.49; W 1.74
W23: C 1.71; D 1.89; E 1.72; G 2.62; I 2.83; K 1.39; L 1.8; N 1.71; P 1.45; S 1.82; V 3.03
D24: E 3.24; H 4.96; I 3.06; K 1.4

Variants of: B2
Assay: as above
Details: c terminus: a fixed tail appended

Protein stability index: each site, then its substitutions
N1: C 2.81; D 3.27; E 2.36; F 3.02; H 2.44; K 2.26; L 2.23; M 3.01; P 2.45; Q 1.1; R 4.3; S 1.75; T 2.02; W 2.72; Y 2.74
I2: A 1.05; C 2.42; D 2.85; E 2.07; F 2.28; G 1.46; H 2.1; K 2.25; L 1.88; M 2.5; N 2.02; P 2.9; Q 1.78; R 1.94; S 2.38; T 2.01; V 2.03; W 3.13; Y 1.47
P3: A 3.65; C 2.88; D 2.43; E 2.12; G 2.86; H 1.82; I 2.13; K 3.61; L 1.92; N 2.28; Q 3.08; S 1.41; T 2.46; V 3.79; W 3.62
F4: A 2.34; C 2.63; D 2.44; E 2.22; G 2.2; H 2.35; I 2.63; K 2.12; L 3.09; M 2.26; N 2.79; P 2.58; Q 2.62; R 1.37; S 2.04; T 2.03; V 2.42; W 1.44; Y 2.56
F5: A 1.98; C 3.66; D 2; E 1.67; G 1.7; H 1.79; I 2.26; K 2.17; L 1.56; M 1.78; N 1.73; P 1.49; Q 2.13; R 2.34; S 2.16; T 1.49; V 2.41; W 1.68; Y 2.26
P6: A 2.97; C 1.8; D 2.23; E 2.5; F 3.43; G 3.94; H 2.31; I 3.02; K 2; M 2.25; N 2.81; Q 2.32; R 1.51; S 2.52; T 2.77; V 3.65; Y 3.14
D7: A 1.65; C 2.67; E 2.4; F 2.25; G 3.35; H 2.53; I 2.86; K 2.03; L 2.88; M 3.45; N 2.78; P 2.46; Q 3.44; R 2.46; S 3.27; T 4.43; V 2; W 4.12; Y 2.79
L8: A 2.32; C 1.92; D 1.98; E 2.11; F 3.11; G 1.47; H 2; I 2.92; K 2.7; M 2.51; N 1.86; P 2.25; Q 2.22; R 1.99; S 1.82; T 2.73; V 2.09; W 2.64; Y 2.05
Q9: A 2.86; C 2.34; D 2.5; E 2.15; F 2.56; G 4.13; H 2.84; I 1.92; K 1.89; L 3.06; M 2.9; N 2.63; P 1.93; R 2.36; S 2.83; T 2.26; V 4.4; W 2.96; Y 2.88
I10: A 1.75; C 2.15; D 1.68; E 1.68; F 2.95; G 1.4; H 2.34; K 2.58; L 2.47; M 2.49; N 2.05; P 2.2; Q 2.31; R 1.49; S 2.09; T 1.72; V 2.68; W 2.39; Y 3.02
T11: A 3.71; C 2.25; D 1.61; E 2.06; F 3.29; G 2.28; H 2.89; I 2.59; K 2.55; L 4.1; M 3.1; N 1.67; P 2.02; Q 2.47; R 2.52; S 2.96; V 1.99; W 3.19; Y 1.46
D12: A 3.01; C 2.46; E 3.52; F 2.42; G 2.42; H 3.3; I 3.82; K 3.13; L 2.12; M 2.37; N 2.42; P 4.7; R 1.66; S 3.57; T 2.86; V 4.16; W 3.74; Y 4.16
Q13: A 2.75; C 3.12; D 1.85; E 2.2; F 1.69; G 1.29; H 3.09; I 4.15; K 2.41; L 4.11; M 4.27; N 1.97; P 2.57; R 1.92; S 2.33; T 3.06; V 2.66; W 2.93
V14: A 1.7; C 3.12; D 1.57; E 1.9
